# B1: Serine/threonine-protein kinase TBK1 (Homo sapiens), Q9UHD2 (parent)
# chain: MQSTSNHLWLLSDILGQGATANVFRGRHKKTGDLFAIKVFNNISFLRPVDVQMREFEVLKKLNHKNIVKLFAIEEETTTRHKVLIMEFCPCGSLYTVLEEPSNAYGLPESEFLIVLRDVVGGMNHLRENGIVHRDIKPGNIMRVIGEDGQSVYKLTDFGAARELEDDEQFVSLYGTEEYLHPDMYERAVLRKDHQKKYGATVDLWSIGVTFYHAATGSLPFRPFEGPRRNKEVMYKIITGKPSGAISGVQKAENGPIDWSGDMPVSCSLSRGLQVLLTPVLANILEADQEKCWGFDQFFAETSDILHRMVIHVFSLQQMTAHKIYIHSYNTATIFHELVYKQTKIISSNQELIYEGRRLVLEPGRLAQHFPKTTEENPIFVVSREPLNTIGLIYEKISLPKVHPRYDLDGDASMAKAITGVVCYACRIASTLLLYQELMRKGIRWLIELIKDDYNETVHKKTEVVITLDFCIRNIEKTVKVYEKLMKINLEAAELGEISDIHTKLLRLSSSQGTIETSLQDIDSRLSPGGSLADAWAHQEGTHPKDRNVEKLQVLLNCMTEIYYQFKKDKAERRLAYNEEQIHKFDKQKLYYHATKAMTHFTDECVKKYEAFLNKSEEWIRKMLHLRKQLLSLTNQCFDIEEEVSKYQEYTNELQETLPQKMFTASSGIKHTMTPIYPSSNTLVEMTLGMKKLKEEMEGVVKELAENNHILERFGSLTMDGGLRNVDCL
# B2: Serine/threonine-protein kinase TBK1 (Homo sapiens), Q9UHD2 (parent)
# chain: B1 chain
# partner: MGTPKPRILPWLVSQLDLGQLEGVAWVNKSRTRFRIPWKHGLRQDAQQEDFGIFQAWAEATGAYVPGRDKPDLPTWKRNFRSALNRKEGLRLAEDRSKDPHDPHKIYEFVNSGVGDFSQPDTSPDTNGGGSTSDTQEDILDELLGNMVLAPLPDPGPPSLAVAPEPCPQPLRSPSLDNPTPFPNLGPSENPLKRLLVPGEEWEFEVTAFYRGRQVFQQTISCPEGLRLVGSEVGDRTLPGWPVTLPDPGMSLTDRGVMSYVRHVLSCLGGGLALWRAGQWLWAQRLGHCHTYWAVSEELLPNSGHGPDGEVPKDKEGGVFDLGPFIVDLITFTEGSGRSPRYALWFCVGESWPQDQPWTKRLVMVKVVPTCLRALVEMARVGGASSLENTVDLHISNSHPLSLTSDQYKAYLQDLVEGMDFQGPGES
# Variants of: B1
# Settings: with optn_human OPTN
row,Variant,effect of a mutation on the interaction
1,R308Q,with no effect
2,R47H,increasing interaction strength
3,M559R,disrupting interaction strength
4,K38A,with no effect
5,R357Q,decreasing interaction strength

# Variants of: B1
# Settings: with optn_human OPTN
# Remark: another data set of the same source
row,Variant,effect of a mutation on the interaction
1,E696K,disrupting interaction strength
2,R357Q,disrupting interaction strength

# Variants of: B2
# Settings: with irf3_human IRF3, Q14653
row,Variant,effect of a mutation on the interaction
1,M559R,disrupting interaction strength
2,R308Q,decreasing interaction strength
3,R357Q,disrupting interaction strength
4,R47H,increasing interaction strength
5,E696K,decreasing interaction strength

# — IntAct's records for PubMed 25803835
